Experimental data taken from patent US20230159650A1 (SEOUL NATIONAL UNIVERSITY R AND DB FOUNDATION, published 2023).

Biological target: T1, human FasL where an immunoglobulin (IgG) is combined (huFasL-IgG) (human, UniProt P48023 134-281, limits assumed)
T1 construct: also called IgG-combined FasL; not shown: immunoglobulin (IgG) part
T1 sequence (looked up): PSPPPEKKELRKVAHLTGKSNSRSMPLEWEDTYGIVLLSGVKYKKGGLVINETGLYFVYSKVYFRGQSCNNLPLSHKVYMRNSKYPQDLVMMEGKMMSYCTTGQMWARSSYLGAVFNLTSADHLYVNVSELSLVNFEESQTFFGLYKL
Assay: flow cytometry on transfected mouse cells
Method: After transfecting mutated huDR5 DNA to mouse cells and expressing each of DR5 where huDR5-CRD2 was mutated (Table 1, SEQ ID NO: 4), or DR5 where huDR5-CRD3 was mutated (Table 1, SEQ ID NO: 5), flow cytometry was performed using human FasL where an immunoglobulin (IgG) binding only to cells expressing huDR5 was combined (huFasL-IgG), and the result was shown in FIG. 8b.

B1: DR5 where huDR5-CRD2 was mutated (Mutation huDR5-CRD2 Protein) (receptor)
chain: ITQQDLAPQQRAAPQQKRSSPSEGLCPPGHHISEDGRDCISCKYGQDYSTHWNDLLACLACTRCAAGEVELSPCTTTRNTVCQCEEGTFREEDSPEMCRKCRTGCPRGMVKVGDCTPWSDIECVHKESGIIIGVTVAAVVLIVAVFVCKSLLWKKVLPYLKGICSGGGGDPERVDRSSQRPGAEDNVLNEIVSILQPTQVPEQEMEVQEPAEPTGVNMLSPGESEHLLEPAEAERSQRRRLLVPANEGDPTETLRQCFDDFADLVPFDSWEPLMRKLGLMDNEIKVAKAEAAGHRDTLYTMLIKWVNKTGRDASVHTLLDALETLGERLAKQKIEDHLLSSGKFMYLEGNADSAMS
notes: Expressed in transfected mouse cells; also called huDR5-CRD2 mutant
binding result: no binding

B2: DR5 where huDR5-CRD3 was mutated (Mutation huDR5-CRD3 Protein) (receptor)
chain: ITQQDLAPQQRAAPQQKRSSPSEGLCPPGHHISEDGRDCISCKYGQDYSTHWNDLLFCLRCTRCDSGEVELSPCTTTRNTVCQCEEGTFREEDAPAMCAKCATGCPRGMVKVGDCTPWSDIECVHKESGIIIGVTVAAVVLIVAVFVCKSLLWKKVLPYLKGICSGGGGDPERVDRSSQRPGAEDNVLNEIVSILQPTQVPEQEMEVQEPAEPTGVNMLSPGESEHLLEPAEAERSQRRRLLVPANEGDPTETLRQCFDDFADLVPFDSWEPLMRKLGLMDNEIKVAKAEAAGHRDTLYTMLIKWVNKTGRDASVHTLLDALETLGERLAKQKIEDHLLSSGKFMYLEGNADSAMS
notes: Expressed in transfected mouse cells; also called huDR5-CRD3 mutant
binding result: no binding
